B1: Zinc finger MYM-type protein 6, residues 427 to 504; numbered along this chain, O95789 (parent)
chain: KLKCQHCNHLFATKPELLFYKGKMFLFCGKNCSDEYKKKNKVVAMCDYCKLQKIIKETVRFSGVDKPFCSEVCKFLSA

Variants of: B1
Test: abundance fitness (aPCA) (normalised: wild type 0, dead -1); higher = more abundant; growth selection in yeast, the domain comes from the species named
Details: Homo sapiens

Abundance fitness: each site, then its substitutions
S77: C -0.104, L -1.36, Y -0.09, W -0.106, T -1.01, G 0.139
V64: M 0.606, C -0.432, S -0.107, Q -0.009, I 0.365, Y 0.387, A -0.302, F -0.448, T 0.037, R 0.058, E 0.09, K -0.298, D 0.474, G 0.046, W -0.765
S70: Q -0.578, D -0.498, P -0.563, A -0.651, L -0.162, H -0.248, Y -0.673, C -0.425, R -0.925, K -0.635, V -1.05, G -0.502, M -0.482, W -1.14
P67: S 0.122, V 0.27, Q 0.296, W -0.088, A -0.51, T -0.349, G 0.07, M 0.952, R 0.042, K 0.486, L -0.354, E -0.562
K74: L -0.594, E -0.39, N -0.996, R -0.298, T -0.017, G -0.427, S -0.705, A -0.025, F -0.594, V -0.674, M 0.544, Q -0.123
V72: K 0.775, S 0.239, L 0.003, W 0.353, R 0.411, T 0.216, H 0.016, Q 0.562, Y 0.757, N 0.64, E 0.535, C 0.553, A 0.252, G 0.036
F68: L -0.288, C 0.204, K -0.476, P -0.113, W -0.651, D -0.35, T -0.555, Q -0.341, Y 0.439, M 0.263, S -0.842, R -0.516, E -0.278, A -0.036
C69: E -0.286, V -1.03, P -0.391, K -0.637, A -1.23, Q -0.404, L -0.954, G -0.731, W -0.71, T -0.902, S -0.539, R -0.602, M -0.443
E71: S -0.239, Q -0.194, N 0.491, Y -0.28, K 0.16, M 0.094, G -0.292, V -0.386, L -0.962, H -0.09, R -0.111, A -0.188, W -0.634, P -0.054, T 0.076
F75: Q 0.096, R 0.499, P 0.039, S 0.48, D 0.671, Y -0.699, V 0.256, A 0.488, L 0.365, C 0.677, I 0.02, K 0.533, T 0.557, N 0.487, G 0.484
K66: L -0.889, C -0.635, H -0.091, M 0.325, E 0.161, Y 0.215, S -0.669, V 0.542, A -0.292, G 0.144, T -0.199, W -0.845, Q -0.348
C73: P -1.51, V -0.728, E -0.885, I -0.753, M -0.142, Q -0.944, W -0.751, R -0.863, A -0.627, G -0.638, D -0.505
G63: W -0.486, L -0.315, S -0.53, A -0.495, C -0.709, Q -0.191, F -0.179, D 0.098, P -0.201, T -0.226, V -0.713, R -0.554, E -0.502

Source: the Human Domainome abundance scans (Beltran et al. 2025)
